T1: GST fusion with the GPR loop of MyoK (Dictyostelium, UniProt Q9XXV8 114-272)
T1 sequence (looked up): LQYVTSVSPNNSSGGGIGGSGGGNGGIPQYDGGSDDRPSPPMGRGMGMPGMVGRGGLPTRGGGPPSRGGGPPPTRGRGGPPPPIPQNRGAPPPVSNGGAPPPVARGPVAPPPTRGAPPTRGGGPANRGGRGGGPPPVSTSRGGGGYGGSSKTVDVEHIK

T2: His-tagged dynamin A (Dictyostelium, UniProt Q94464 1-853)
T2 sequence (looked up): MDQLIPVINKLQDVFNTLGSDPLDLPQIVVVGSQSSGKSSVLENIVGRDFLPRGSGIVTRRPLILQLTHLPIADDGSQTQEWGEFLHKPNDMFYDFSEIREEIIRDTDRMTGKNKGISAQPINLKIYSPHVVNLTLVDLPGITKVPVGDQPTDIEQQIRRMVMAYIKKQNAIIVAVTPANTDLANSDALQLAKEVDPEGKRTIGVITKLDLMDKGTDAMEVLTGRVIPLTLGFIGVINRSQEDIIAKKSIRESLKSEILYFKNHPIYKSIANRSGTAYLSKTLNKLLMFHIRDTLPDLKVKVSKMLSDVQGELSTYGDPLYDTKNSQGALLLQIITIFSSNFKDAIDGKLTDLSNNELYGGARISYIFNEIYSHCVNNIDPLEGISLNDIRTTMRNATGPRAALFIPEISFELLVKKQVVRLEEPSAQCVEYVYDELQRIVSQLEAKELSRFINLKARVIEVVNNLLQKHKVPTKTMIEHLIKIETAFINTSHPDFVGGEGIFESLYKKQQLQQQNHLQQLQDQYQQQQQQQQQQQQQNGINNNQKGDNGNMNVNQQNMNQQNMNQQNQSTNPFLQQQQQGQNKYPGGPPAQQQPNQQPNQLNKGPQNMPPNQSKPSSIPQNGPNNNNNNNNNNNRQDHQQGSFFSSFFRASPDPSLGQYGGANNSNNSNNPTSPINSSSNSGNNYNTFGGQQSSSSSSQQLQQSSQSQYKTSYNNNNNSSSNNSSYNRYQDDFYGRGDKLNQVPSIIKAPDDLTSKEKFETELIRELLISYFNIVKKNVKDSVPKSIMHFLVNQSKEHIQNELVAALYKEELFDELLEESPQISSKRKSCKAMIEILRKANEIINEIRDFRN


Assays:
[1] = biological target: Abp1 (endogenous) (Dictyostelium (endogenous in Dictyostelium cells)); assay: native gel or EMSA
GST-Abp1 (Dictyostelium) = assay: SPR
[2] = biological target: T1, GST fusion with the GPR loop of MyoK; assay: SPR
His-tagged dynamin A = biological target: T2, His-tagged dynamin A; assay: far-Western, overlay or dot blot

Molecule	stoichiometry N [1]	Kd (GST-Abp1 (Dictyostelium))	Kd [2]	binding result (His-tagged dynamin A)
Abp1 (endogenous) (natural protein)	2	–	–	–
Profilin I (natural protein, Dictyostelium, UniProt P26199 1-126, looked up) MSWQQYVDEQLTGAGLSQGAILGANDGGVWAKSSGINITKPEGDGIAALFKNPAEVFAKGALIGGVKYMGIKGDPQSIYGKKGATGCVLVRTGQAIIVGIYDDKVQPGSAALIVEKLGDYLRDNGY	–	–	~500 nM	binds

Continued, values first:

stoichiometry N [1]	Kd (GST-Abp1 (Dictyostelium))	Kd [2]	binding result (His-tagged dynamin A)	Molecule
–	2.6 nM	–	–	His-tagged dynamin A (natural protein) MDQLIPVINKLQDVFNTLGSDPLDLPQIVVVGSQSSGKSSVLENIVGRDFLPRGSGIVTRRPLILQLTHLPIADDGSQTQEWGEFLHKPNDMFYDFSEIREEIIRDTDRMTGKNKGISAQPINLKIYSPHVVNLTLVDLPGITKVPVGDQPTDIEQQIRRMVMAYIKKQNAIIVAVTPANTDLANSDALQLAKEVDPEGKRTIGVITKLDLMDKGTDAMEVLTGRVIPLTLGFIGVINRSQEDIIAKKSIRESLKSEILYFKNHPIYKSIANRSGTAYLSKTLNKLLMFHIRDTLPDLKVKVSKMLSDVQGELSTYGDPLYDTKNSQGALLLQIITIFSSNFKDAIDGKLTDLSNNELYGGARISYIFNEIYSHCVNNIDPLEGISLNDIRTTMRNATGPRAALFIPEISFELLVKKQVVRLEEPSAQCVEYVYDELQRIVSQLEAKELSRFINLKARVIEVVNNLLQKHKVPTKTMIEHLIKIETAFINTSHPDFVGGEGIFESLYKKQQLQQQNHLQQLQDQYQQQQQQQQQQQQQNGINNNQKGDNGNMNVNQQNMNQQNMNQQNQSTNPFLQQQQQGQNKYPGGPPAQQQPNQQPNQLNKGPQNMPPNQSKPSSIPQNGPNNNNNNNNNNNRQDHQQGSFFSSFFRASPDPSLGQYGGANNSNNSNNPTSPINSSSNSGNNYNTFGGQQSSSSSSQQLQQSSQSQYKTSYNNNNNSSSNNSSYNRYQDDFYGRGDKLNQVPSIIKAPDDLTSKEKFETELIRELLISYFNIVKKNVKDSVPKSIMHFLVNQSKEHIQNELVAALYKEELFDELLEESPQISSKRKSCKAMIEILRKANEIINEIRDFRN
–	11 nM	108 nM	binds	Profilin II (natural protein, Dictyostelium, UniProt P26200 1-124, looked up) MTWQAYVDNNLLGAGFASAALLGAADGSVWAHSAGFNVAEGKAITALFQKDGAAFATGIHVAGKKYMAIKSDTRSAYGKLGAGGVVCVKTLTCIIVAVYDDKLQPGAAANIAEKLADYLIDNNC
–	27 nM	–	–	GST fusion with the GPR loop of MyoK (domain or fragment) LQYVTSVSPNNSSGGGIGGSGGGNGGIPQYDGGSDDRPSPPMGRGMGMPGMVGRGGLPTRGGGPPSRGGGPPPTRGRGGPPPPIPQNRGAPPPVSNGGAPPPVARGPVAPPPTRGAPPTRGGGPANRGGRGGGPPPVSTSRGGGGYGGSSKTVDVEHIK
